Laboratory results taken from patent US20200407442A1 (WUXI BIOLOGICS IRELAND, published 2020).

T1: full-length human LAG-3 on cells (human, UniProt P18627 23-525)
T1 construct: Expressed on Flp-In-293, CHO or 293F transfectants; also called hPro1.FL; cell surface human LAG-3
T1 sequence: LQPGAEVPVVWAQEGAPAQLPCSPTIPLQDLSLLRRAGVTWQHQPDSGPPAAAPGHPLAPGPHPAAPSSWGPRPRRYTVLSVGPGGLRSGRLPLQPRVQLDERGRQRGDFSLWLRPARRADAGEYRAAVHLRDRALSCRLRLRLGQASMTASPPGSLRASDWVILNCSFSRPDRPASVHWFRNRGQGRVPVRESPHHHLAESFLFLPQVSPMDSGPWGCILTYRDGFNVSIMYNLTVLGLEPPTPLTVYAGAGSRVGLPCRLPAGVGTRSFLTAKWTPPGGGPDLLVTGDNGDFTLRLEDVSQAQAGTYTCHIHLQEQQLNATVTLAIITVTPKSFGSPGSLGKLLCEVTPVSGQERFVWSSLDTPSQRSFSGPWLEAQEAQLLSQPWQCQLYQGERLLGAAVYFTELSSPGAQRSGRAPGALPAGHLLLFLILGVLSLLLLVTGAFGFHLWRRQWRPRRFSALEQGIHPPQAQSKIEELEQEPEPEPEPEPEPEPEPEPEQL

T2: human LAG-3-ECD.D12.mFc mutant D143A (human, UniProt P18627 37-252)
T2 construct: Alanine scanning mutant; construct limits as for m26
T2 chain: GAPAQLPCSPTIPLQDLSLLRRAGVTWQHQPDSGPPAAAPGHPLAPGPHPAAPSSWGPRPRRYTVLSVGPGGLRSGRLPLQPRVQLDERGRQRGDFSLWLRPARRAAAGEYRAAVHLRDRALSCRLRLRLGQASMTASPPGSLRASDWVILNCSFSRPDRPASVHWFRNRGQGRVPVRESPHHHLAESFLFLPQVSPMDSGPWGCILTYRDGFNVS

T3: human LAG-3-ECD.D12.mFc mutant H65A (human, UniProt P18627 37-252)
T3 construct: Alanine scanning mutant; construct limits as for m26
T3 chain: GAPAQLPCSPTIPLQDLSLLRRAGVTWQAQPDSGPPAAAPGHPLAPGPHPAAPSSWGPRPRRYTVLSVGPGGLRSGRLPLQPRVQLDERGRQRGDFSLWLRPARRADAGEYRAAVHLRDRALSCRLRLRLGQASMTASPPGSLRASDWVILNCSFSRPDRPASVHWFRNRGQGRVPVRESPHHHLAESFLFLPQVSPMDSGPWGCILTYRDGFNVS

T4: human LAG-3-ECD.D12.mFc mutant V101A (human, UniProt P18627 37-252)
T4 construct: Alanine scanning mutant; construct limits as for m26
T4 chain: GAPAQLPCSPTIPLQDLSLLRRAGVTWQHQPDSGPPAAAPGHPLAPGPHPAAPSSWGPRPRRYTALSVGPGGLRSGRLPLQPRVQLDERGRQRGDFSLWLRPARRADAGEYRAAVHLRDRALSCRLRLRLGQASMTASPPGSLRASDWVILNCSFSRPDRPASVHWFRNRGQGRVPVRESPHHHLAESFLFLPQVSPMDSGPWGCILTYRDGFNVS

T5: human LAG-3-ECD.D12.mFc mutant E146A (human, UniProt P18627 37-252)
T5 construct: Alanine scanning mutant; construct limits as for m26
T5 chain: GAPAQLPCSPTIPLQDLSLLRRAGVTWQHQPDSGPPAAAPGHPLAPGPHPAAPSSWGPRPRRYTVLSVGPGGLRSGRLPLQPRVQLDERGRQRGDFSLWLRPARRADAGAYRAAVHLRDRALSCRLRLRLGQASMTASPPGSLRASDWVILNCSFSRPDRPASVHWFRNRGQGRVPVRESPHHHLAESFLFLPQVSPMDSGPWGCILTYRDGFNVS

T6: human LAG-3-ECD.D12.mFc mutant Y147A (human, UniProt P18627 37-252)
T6 construct: Alanine scanning mutant; construct limits as for m26
T6 chain: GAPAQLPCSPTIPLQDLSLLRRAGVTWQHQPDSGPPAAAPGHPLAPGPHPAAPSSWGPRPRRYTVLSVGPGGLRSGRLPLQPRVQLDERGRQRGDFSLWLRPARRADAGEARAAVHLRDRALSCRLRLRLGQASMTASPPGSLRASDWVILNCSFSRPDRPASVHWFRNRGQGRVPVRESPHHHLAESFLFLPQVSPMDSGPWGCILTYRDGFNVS

T7: human LAG-3-ECD.D12.mFc mutant G37A (human, UniProt P18627 38-252)
T7 construct: Alanine scanning mutant; construct limits as for m26
T7 sequence: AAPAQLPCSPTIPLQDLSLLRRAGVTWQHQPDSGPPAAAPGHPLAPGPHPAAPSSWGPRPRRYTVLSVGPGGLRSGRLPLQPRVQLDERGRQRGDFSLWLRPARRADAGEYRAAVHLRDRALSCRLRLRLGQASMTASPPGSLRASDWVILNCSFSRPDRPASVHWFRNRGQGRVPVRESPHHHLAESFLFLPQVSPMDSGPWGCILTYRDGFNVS

B1: 1.53.3-uAb-IgG4k (antibody, V domains shown)
VH: QVQLQQWGAGLLKPSETLSLTCGVYGGSFSGYYWSWIRQPPGMGLEWIGEINHRGNTNYNPSLKSRVTISEDTSKNQFSLRLSSVTAADTAVYFCTRGEDYSDYDYYGDFWGQGTLVTVSS
VL: EIVLTQSPATLSLSQGERATLSCRASQSISSYLAWYQQKPGQAPRLLIYAASNRATGIPARFSGSGSGTDFTLTISSLEPEDFAIYYCQQRSNWPLTFGGGTKVEIK
notes: Fully human antibody from OMT rats; IgG4 kappa by its name
B2: 3.40.19-uAb-IgG4L (antibody, V domains shown)
VH: QLQLQESGPGLVKPSETLSLTCTVSGDSISSTSYYWGWIRQPPGKGLEWIGSFYYSGSTYYNPSLKSRVTISVDTSKNQFSLKLNSVTAADTAVYYCARMQLWSYDVDVWGQGTTVTVSS
VL: QSALTQPASVSGSPGQSITISCTGTSSDVGGYDYVAWYQQHPGKVPKLMIYDVSERPSGVSNRFSGSKSGNTASLTISGLQAEDEADYYCSSYTSTTTLVVFGGGTKLSVL
notes: Fully human antibody from OMT rats; IgG4 lambda by its name; also called 3.40.19-uAb-hIgG4L

Tests used:
[1] = biological target: T1, full-length human LAG-3 on cells; experiment: FACS affinity on Flp-In-293 cells expressing human LAG-3
Protocol: Antibody binding affinity to cell surface LAG-3 was measured by FACS analysis. Flp-In-293 cells expressing human LAG-3 were transferred in to 96-well U-bottom plates at a density of 5×10⁵ cells/mL. Tested antibodies were serially diluted in wash buffer (1×PBS/1%BSA) and incubated with cells at 4° C. for 1 h. The secondary antibody goat anti-human IgG Fc FITC (3.5 moles FITC per mole IgG) was added and incubated at 4° C. in the dark for 0.5 h. The cells were then washed once and resuspended in 1×PBS/1%BSA, and analyzed by flow cytometry. Fluorescence intensity will be converted to bound molecules/cell based on the quantitative beads (QuantumTM MESF Kits, Bangs Laboratories, Inc.). Affinity was calculated using Graphpad Prism 5.

[2] = biological target: T2, human LAG-3-ECD.D12.mFc mutant D143A; experiment: ELISA, antibody coated, LAG-3 D12.mFc mutant in supernatant, normalised to control mutants
Protocol: (§1) For ELISA binding assay, the antibody 1.53.3-uAb-IgG4k or 3.40.19-uAb-hIgG4L (2 μg/mL) was coated in plates. After interacting with the supernatant that contains quantified LAG-3 mutants or human LAG-3-ECD.D12.mFc protein, HRP conjugated anti-mFc antibody (1:5000; Bethyl, USA) was added as a detection antibody. Absorbance was normalized according to the average absorbance of control mutants. After setting an additional cutoff to the binding fold change (<0.75), the final determined epitope residues were identified.

[3] = biological target: T3, human LAG-3-ECD.D12.mFc mutant H65A; experiment: as above
Protocol: as §1

[4] = biological target: T4, human LAG-3-ECD.D12.mFc mutant V101A; experiment: as above
Protocol: as §1

[5] = biological target: T5, human LAG-3-ECD.D12.mFc mutant E146A; experiment: as above
Protocol: as §1

[6] = biological target: T6, human LAG-3-ECD.D12.mFc mutant Y147A; experiment: as above
Protocol: as §1

[7] = biological target: T7, human LAG-3-ECD.D12.mFc mutant G37A; experiment: as above
Protocol: as §1

Row | Binder | Kd [1] [nM] | Fold Change [2] | Fold Change [3] | Fold Change [4] | Fold Change [5] | Fold Change [6] | Fold Change [7]
1 | B1 | 0.16 | 0.671 | 0.627 | 0.504 | 0.701 | 0.637 | 0.558
2 | B2 | 0.053 | 0.529 | 0.489 | 0.275 | 0.582 | 0.19 | 0.284
